B1: CPEB3 Ribozyme (parent)
chain: GGGGGCCACAGCAGAAGCGUUCACGUCGCGGCCCCUGUCAGAUUCUGGUGAAUCUGCGAAUUCUGCUGU

Variants of: B1
Assay: self-cleavage, relative activity (ratio to wild type); higher = more cleavage; co-transcriptional

| Variant | self-cleavage |
| --- | --- |
| GGGGGCUACAGCAGAAGCGUUCACGUCGCGGCCCCUGUCAGAUUCUGGUGAAUCUGCGAAUUCUGUUGU [C7U C66U] | 0.982 |
| GGGGGCUACAGCAGAAGCGUUCACGUCGCGGCCCCUGUCAGAUUCUGGUGAAUCUGCGAAUUCUGAUGU [C7U C66A] | 0.8 |
| GGGGGCUACAGCAGAAGCGUUCACGUCGCGGCCCCUGUCAGAUUCGGGUGAAUCUGCGAAUUCUGCUGU [C7U U46G] | 0.934 |
| GGGGGCUACAGCAGAAGCGUUCACGUCGCGGCCCCUGUCAGAUUCAGGUGAAUCUGCGAAUUCUGCUGU [C7U U46A] | 0.985 |
| GGGGGCUACAGCAGAAGCGUUCACGUCGCGGCCCCUGUCAGAUUCUGGUAAAUCUGCGAAUUCUGCUGU [C7U G50A] | 0.996 |
| GGGGGCUACAGCAGAAGCGUUCACGUCGCGGCCCCUGUCAGAUUCUGGUGAAUGUGCGAAUUCUGCUGU [C7U C54G] | 0.766 |
| GGGGGCUACAGCAGAAGCGUCCACGUCGCGGCCCCUGUCAGAUUCUGGUGAAUCUGCGAAUUCUGCUGU [C7U U21C] | 0.688 |
| GGGGGCGACAGCAGAAGCGUUCACGGCGCGGCCCCUGUCAGAUUCUGGUGAAUCUGCGAAUUCUGCUGU [C7G U26G] | 0.233 |
| GGGGGCGACAGCAGAAGCGUUCACGACGCGGCCCCUGUCAGAUUCUGGUGAAUCUGCGAAUUCUGCUGU [C7G U26A] | 0.103 |
| GGGGGCGACAGCAGAAGCGUUCACGUCGCGGCCCCUGUCAGAUUCUGGUGAAUCUGCGAAUUCUGCUGA [C7G U69A] | 0.728 |
| GGGGGCGACAGCAGAAGCGUUCACGUCGCGGCCCCUGUCAGACUCUGGUGAAUCUGCGAAUUCUGCUGU [C7G U43C] | 0.231 |
| GGGGGCUACAGCAGAAGCGUUCACGUCGCGGCCCCUAUCAGAUUCUGGUGAAUCUGCGAAUUCUGCUGU [C7U G37A] | 0.187 |
| GGGGGCUACAGCAGAAGCGUUCACGUCGCGGCCCCUCUCAGAUUCUGGUGAAUCUGCGAAUUCUGCUGU [C7U G37C] | 0.152 |
| GGGGGCUACAGCAGAAGCGUUCACGACGCGGCCCCUGUCAGAUUCUGGUGAAUCUGCGAAUUCUGCUGU [C7U U26A] | 0.597 |
| GGGGGCUACAGCAGAAGCGUUCACGGCGCGGCCCCUGUCAGAUUCUGGUGAAUCUGCGAAUUCUGCUGU [C7U U26G] | 0.762 |
| GGGGGCUACAGCAGAAGCGUUCACGUCGCGGUCCCUGUCAGAUUCUGGUGAAUCUGCGAAUUCUGCUGU [C7U C32U] | 0.984 |
| GGGGGCGACAGCAGAAGCGUUCACGUCGCGGCCCCUGACAGAUUCUGGUGAAUCUGCGAAUUCUGCUGU [C7G U38A] | 0.264 |
| GGGGGCGACAGCAGAAGCGUUCACGUCGCGGCCCCUGGCAGAUUCUGGUGAAUCUGCGAAUUCUGCUGU [C7G U38G] | 0.068 |
| GGGGGCGACAGCAGAAGCGUUCACGUCGCGGCCCCUGCCAGAUUCUGGUGAAUCUGCGAAUUCUGCUGU [C7G U38C] | 0.174 |
| GGGGGCUACAGCAGAAGCGUUCACGUCGCGGCCGCUGUCAGAUUCUGGUGAAUCUGCGAAUUCUGCUGU [C7U C34G] | 0.287 |

| Variant | self-cleavage |
| --- | --- |
| GGGGGCUACAGCAGAAGCGUUCACGUCGCGGCCUCUGUCAGAUUCUGGUGAAUCUGCGAAUUCUGCUGU [C7U C34U] | 0.969 |
| GGGGGCUACAGCAGAAGCGUUCACGUCGCGGCCCCUGUCAGAUUCUGGAGAAUCUGCGAAUUCUGCUGU [C7U U49A] | 0.957 |
| GGGGGCUACAGCUGAAGCGUUCACGUCGCGGCCCCUGUCAGAUUCUGGUGAAUCUGCGAAUUCUGCUGU [C7U A13U] | 0.693 |
| GGGGGCUACAGCAGAAGCGUUCACGUCGCGGCCCCUGUCACAUUCUGGUGAAUCUGCGAAUUCUGCUGU [C7U G41C] | 0.647 |
| GGGGGCGACAGCAGAAGCGUUCACGUCGCGGCCCCUGUCAGAUUCUGGUGAAUCUGCGAAUACUGCUGU [C7G U62A] | 0.18 |
| GGGGGCUACAGCAGAAGCGUUCAGGUCGCGGCCCCUGUCAGAUUCUGGUGAAUCUGCGAAUUCUGCUGU [C7U C24G] | 0.225 |
| GGGGGCUACAGCAGAAGCGUUCAUGUCGCGGCCCCUGUCAGAUUCUGGUGAAUCUGCGAAUUCUGCUGU [C7U C24U] | 0.676 |
| GGGGGCUACAGCAGAAGCGUUCACGUCGCGGCCCCUGUCAGAUUCUGGUGAAUCUGCGAAUUCGGCUGU [C7U U64G] | 0.899 |
| GGGGGCUACAGCAGAAGCGUUCACGUCGCGGCCCCUGUCAGAUUCUGGUGAAUCUGCGAAGUCUGCUGU [C7U U61G] | 0.714 |
| GGGGGCUACAGCAGAAGCGUUCACGUCGCGGCCCCUGUCAGAUUCUGGUGAAUCUACGAAUUCUGCUGU [C7U G56A] | 0.916 |
| GGGGGCUACAGCAGAAGCGUUCACGUCGCGACCCCUGUCAGAUUCUGGUGAAUCUGCGAAUUCUGCUGU [C7U G31A] | 0.496 |
| GGGGGCUACAGCACAAGCGUUCACGUCGCGGCCCCUGUCAGAUUCUGGUGAAUCUGCGAAUUCUGCUGU [C7U G14C] | 0.417 |
| GGGGGCUACAGCAGAAGCGUUCACGUCGCGGCCCCUGUCAGAUUCUGGUGAGUCUGCGAAUUCUGCUGU [C7U A52G] | 0.957 |
| GGGGGCUACAGCAGAAGCGUUCACGUCGCGGCCCCUGUCAGAUUCUGGUGAUUCUGCGAAUUCUGCUGU [C7U A52U] | 0.91 |
| GGGGGCGACAGCAGAAGCGUUCACGUCGCGGCCCCAGUCAGAUUCUGGUGAAUCUGCGAAUUCUGCUGU [C7G U36A] | 0.0233 |
| GGGGGCUACAGCAGAAGCGUUCACGUCGCGGCCCCUGUCAGAUUCUGGUGAAUCUGCGAAUUCUGCUUU [C7U G68U] | 0.965 |
| GGGGGCUACAGCAGAAGCGUUCACGUCGCGGCCCCUGUCAGAUUCUUGUGAAUCUGCGAAUUCUGCUGU [C7U G47U] | 1.02 |
| GGGGGCUACAGCAGAAGCGUUCACGUCGCGGCCCCUGUCAGAUUCUGCUGAAUCUGCGAAUUCUGCUGU [C7U G48C] | 0.949 |
| GGGGGCUACAGCAGAAGCGUUCACGUCGCGGCCCCUGUCAGAUUCUGGUGAAUCUGCUAAUUCUGCUGU [C7U G58U] | 0.983 |
